# Patent publication US20130189278A1 (Merck Sharp & Dohme, published 2013)
# Target: recombinant human PCSK9, V5-, His-tagged (human, UniProt Q8NBP7 31-692)
# Test: cell-based or functional assay
# Sequence of recombinant human PCSK9, V5-, His-tagged (Q8NBP7 31-692 limits assumed): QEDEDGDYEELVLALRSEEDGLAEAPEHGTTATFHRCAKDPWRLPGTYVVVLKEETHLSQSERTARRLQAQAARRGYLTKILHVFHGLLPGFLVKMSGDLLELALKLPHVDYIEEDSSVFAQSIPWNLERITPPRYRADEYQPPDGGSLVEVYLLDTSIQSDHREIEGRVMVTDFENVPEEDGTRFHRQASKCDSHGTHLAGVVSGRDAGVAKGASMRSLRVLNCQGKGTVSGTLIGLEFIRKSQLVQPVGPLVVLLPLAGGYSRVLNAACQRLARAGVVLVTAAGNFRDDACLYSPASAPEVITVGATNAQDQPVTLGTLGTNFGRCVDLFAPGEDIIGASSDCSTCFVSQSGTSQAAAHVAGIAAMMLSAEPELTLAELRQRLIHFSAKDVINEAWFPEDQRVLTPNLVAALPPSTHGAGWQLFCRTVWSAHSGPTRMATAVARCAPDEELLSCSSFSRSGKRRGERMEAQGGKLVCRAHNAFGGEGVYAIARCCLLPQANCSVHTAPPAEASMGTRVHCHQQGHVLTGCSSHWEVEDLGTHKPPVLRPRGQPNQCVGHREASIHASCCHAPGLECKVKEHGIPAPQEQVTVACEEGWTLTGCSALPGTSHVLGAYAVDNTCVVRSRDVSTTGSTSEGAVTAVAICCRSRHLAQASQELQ
binder,measurement,value
"3CX3D02 (Fab, V domains shown) VH: QVQLVQSGAEVKKPGESLKISCKGSGYSFTNSWIGWVRQMPGKGLEWMGIIYPSDSYTIYSPSFQGQVTISADKSISTAYLQWSSLKASDTAMYYCARGGGYYYALMDVWAQGTLVTVSS VL: DIQMTQSPSSLSASVGDRVTITCRASQTISTWLNWYQQKPGKAPKLLIYAASSLQSGVPSRFSGSGSGTDFTLTISSLQPEDFATYYCLQDSSLPLTFGQGTKVEIKR","IC50, Exopolar assay: reversal of PCSK9-dependent loss of cellular diI-LDL uptake, Fab titrated against fixed PCSK9 (25 µg/ml)",269 nM
